Measurements as given in the Human Domainome abundance scans (Beltran et al. 2025).
± gives the uncertainty stated by the source.

B1: POU domain, class 3, transcription factor 3, residues 320 to 388; numbered along this chain, P20264 (parent)
chain: DDLEQFAKQFKQRRIKLGFTQADVGLALGTLYGNVFSQTTICRFEALQLSFKNMCKLKPLLNKWLEEAD
B2: Metastasis-associated protein MTA3, residues 265 to 317; numbered along this chain, Q9BTC8 (parent)
chain: RDEMEEWSASEASLFEEALEKYGKDFNDIRQDFLPWKSLTSIIEYYYMWKTTD

Variants of: B1
Experiment: abundance fitness (aPCA) (normalised: wild type 0, dead -1); higher = more abundant; growth selection in yeast, the domain comes from the species named
Conditions: Homo sapiens

Abundance fitness, by site and new letter:
A7: M -0.737 ± 0.19, P -0.722 ± 0.32, W -0.87 ± 0.31, Q -0.703 ± 0.23, T -0.069 ± 0.24, I -0.057 ± 0.11, F -0.642 ± 0.2, C -0.198 ± 0.065, G -0.478 ± 0.11, D -0.694 ± 0.27, S 0.117 ± 0.11, V -0.065 ± 0.068, L -0.908 ± 0.36, R -0.69 ± 0.15
K8: H -0.306 ± 0.21, G -0.561 ± 0.14, M -0.106 ± 0.14, D -0.705 ± 0.48, T -0.475 ± 0.24, A 0.001 ± 0.11, S -0.738 ± 0.23, V -0.424 ± 0.11, Q -0.061 ± 0.099, I 0.162 ± 0.33, L 0.022 ± 0.07, E -0.019 ± 0.14, W -0.42 ± 0.19, F -0.439 ± 0.33
D1: N 0.529 ± 0.33
Q9: S -0.107 ± 0.082, K -0.046 ± 0.071, Y 0.052 ± 0.12, I -0.425 ± 0.26, E 0.042 ± 0.12, L -0.223 ± 0.043, G -0.205 ± 0.083, T 0.029 ± 0.097, A -0.241 ± 0.1, N 0.038 ± 0.12, M 0.128 ± 0.12, V -0.231 ± 0.081, W -0.2 ± 0.1, C -0.457 ± 0.12, R -0.222 ± 0.066
D2: Q -0.159 ± 0.13, V -0.95 ± 0.5, A 0.107 ± 0.16, L -0.272 ± 0.14, S -0.119 ± 0.3, K 0.034 ± 0.12, E -0.031 ± 0.049, P -0.339 ± 0.23, M -0.252 ± 0.14, I -0.238 ± 0.15, T 0.029 ± 0.13, W -0.111 ± 0.13, R -0.176 ± 0.089, G -0.224 ± 0.081
F10: R -0.543 ± 0.16, S -0.846 ± 0.28, G -0.288 ± 0.12, A -0.776 ± 0.24, P -0.896 ± 0.25, M -0.631 ± 0.33, C -0.338 ± 0.25, N -0.705 ± 0.48, Q -0.698 ± 0.38, K -0.365 ± 0.36, T -0.488 ± 0.17
L3: A -1 ± 0.32, V -0.318 ± 0.11, Y -0.242 ± 0.2, I -0.161 ± 0.27, T -0.981 ± 0.33, P -0.755 ± 0.24, F -0.454 ± 0.49, E -0.43 ± 0.31, Q -0.421 ± 0.38, R -0.937 ± 0.19, W -0.587 ± 0.17, G -0.758 ± 0.18

Variants of: B2
Experiment: as above
Conditions: Homo sapiens

Abundance fitness of substitutions, site by site:
D53: C 0.179 ± 0.29, T -0.41 ± 0.22, V -0.336 ± 0.092, P -0.044 ± 0.097, Y -0.543 ± 0.36, N 0.211 ± 0.3, I -0.566 ± 0.48, G 0.066 ± 0.16, A -0.135 ± 0.095, R -0.164 ± 0.39
T40: A -0.322 ± 0.092, Q 0.195 ± 0.073, L -0.827 ± 0.094, R -0.029 ± 0.08, V -0.714 ± 0.087, W -0.898 ± 0.18, G -0.188 ± 0.15, F -0.875 ± 0.18, C -0.328 ± 0.2, I -0.771 ± 0.27, D 0.195 ± 0.1, N 0.129 ± 0.086, M -0.435 ± 0.084, S -0.336 ± 0.093, H -0.138 ± 0.097, Y -0.571 ± 0.23, P -0.332 ± 0.076
Y47: Q 0.329 ± 0.2, W -0.174 ± 0.15, A 0.387 ± 0.1, G 0.027 ± 0.077, E 0.516 ± 0.088, T 0.398 ± 0.14, C -0.187 ± 0.24, K 0.375 ± 0.23, S 0.325 ± 0.14, N 0.053 ± 0.29, H 0.196 ± 0.11, R 0.31 ± 0.078, L -0.735 ± 0.21, V -0.681 ± 0.18
E44: M -0.961 ± 0.38, I -0.779 ± 0.15, Q 0.015 ± 0.13, C -0.808 ± 0.43, H -0.438 ± 0.14, N 0.177 ± 0.18, L -0.694 ± 0.092, K -0.246 ± 0.13, Y -0.834 ± 0.15, A -0.477 ± 0.1, D -0.145 ± 0.15, R 0.079 ± 0.094, G -0.691 ± 0.12, V -0.758 ± 0.18, T -0.443 ± 0.081, P -0.922 ± 0.098, W -1.05 ± 0.5
T51: W -0.853 ± 0.17, R -0.097 ± 0.075, M -0.542 ± 0.16, Y 0.304 ± 0.12, S -0.068 ± 0.1, G 0.076 ± 0.075, F -0.732 ± 0.35, D 0.134 ± 0.18, A 0.185 ± 0.11, C -0.244 ± 0.12, H -0.235 ± 0.1, N -0.027 ± 0.083, P -0.1 ± 0.1, V -0.624 ± 0.14, Q 0.433 ± 0.14, L -0.147 ± 0.084
K37: P -0.877 ± 0.17, W -0.84 ± 0.089, N -0.803 ± 0.1, R -0.398 ± 0.075, T -0.88 ± 0.082, S -0.65 ± 0.074, Y -0.806 ± 0.12, V -0.842 ± 0.12, M -0.719 ± 0.15
T52: F -0.51 ± 0.37, C 0.191 ± 0.14, V -0.097 ± 0.12, Y -0.428 ± 0.12, N 0.2 ± 0.095, I -0.292 ± 0.22, G 0.001 ± 0.097, H -0.405 ± 0.2, P -0.055 ± 0.078, S -0.032 ± 0.071, K 0.344 ± 0.1, D -0.251 ± 0.21, A -0.097 ± 0.065, R 0.08 ± 0.069, L -0.298 ± 0.094, W -0.521 ± 0.23, M -0.402 ± 0.13
S38: L -0.69 ± 0.12, D -0.71 ± 0.21, P -0.563 ± 0.18, C -0.995 ± 0.47, V -0.821 ± 0.23, H -0.425 ± 0.19, F -0.844 ± 0.24, Y -0.711 ± 0.092, E 0.047 ± 0.17, W -0.992 ± 0.42, I -0.629 ± 0.2, G 0.47 ± 0.2, R -0.749 ± 0.14, K -0.852 ± 0.23, M -0.159 ± 0.17, Q -0.393 ± 0.14
I43: Y -0.304 ± 0.17, Q 0.136 ± 0.077, R 0.162 ± 0.065, V -0.381 ± 0.12, A -0.148 ± 0.089, E 0.392 ± 0.11, T -0.193 ± 0.095, K 0.268 ± 0.1, P -0.875 ± 0.23, M -0.01 ± 0.085, W -0.559 ± 0.24, G -0.491 ± 0.11, N -0.7 ± 0.26, S -0.297 ± 0.093, H -0.075 ± 0.075, F -0.474 ± 0.18, C -0.517 ± 0.1, L -0.689 ± 0.089, D -1.11 ± 0.35
M48: R 0.323 ± 0.068, D -0.619 ± 0.35, K 0.128 ± 0.26, V -0.212 ± 0.084, Q 0.133 ± 0.086, E -0.207 ± 0.28, P -0.817 ± 0.13, W -0.256 ± 0.12, T -0.103 ± 0.21, L -0.176 ± 0.15, A -0.006 ± 0.091, S -0.04 ± 0.14, F 0.204 ± 0.33, C -0.086 ± 0.075, N -0.144 ± 0.27, G -0.257 ± 0.14
I42: H -0.744 ± 0.14, Q -0.875 ± 0.13, W -0.204 ± 0.13, V -0.475 ± 0.096, A -0.98 ± 0.17, E -0.888 ± 0.26, F -0.634 ± 0.2, M -0.833 ± 0.13, C -0.711 ± 0.13, R -0.69 ± 0.073, P -0.798 ± 0.16, S -0.713 ± 0.1, D -0.828 ± 0.14, L -0.658 ± 0.11, Y -0.572 ± 0.16, T -0.605 ± 0.089
L39: R -0.348 ± 0.081, D -0.483 ± 0.26, A -0.6 ± 0.21, C -0.733 ± 0.17, V -0.327 ± 0.16, G -0.896 ± 0.17, M -0.541 ± 0.46, T -0.389 ± 0.19, S -0.581 ± 0.22, E -0.865 ± 0.34
K50: W -0.882 ± 0.26, H -0.127 ± 0.1, G -0.877 ± 0.18, V 0.311 ± 0.11, E -0.278 ± 0.092, L -0.444 ± 0.074, P -0.472 ± 0.089, F -0.62 ± 0.17, I -0.653 ± 0.089, C -0.279 ± 0.13, R -0.288 ± 0.072, T -0.271 ± 0.08, A -0.42 ± 0.083, Q -0.102 ± 0.077, N 0.024 ± 0.13, M -0.171 ± 0.13, S -0.2 ± 0.074, D -0.593 ± 0.27
Y46: P -0.598 ± 0.14, K -0.791 ± 0.43, V -0.98 ± 0.29, S -0.457 ± 0.2, C -0.976 ± 0.28, E -0.531 ± 0.12, A -0.824 ± 0.12, W -0.62 ± 0.22, M -0.99 ± 0.37, L -0.851 ± 0.39, N -0.907 ± 0.31, G -0.422 ± 0.16, H -0.176 ± 0.35
S41: T -0.804 ± 0.094, G -0.954 ± 0.12, C -0.681 ± 0.2, W -0.901 ± 0.16, R -0.868 ± 0.13, H -0.717 ± 0.21, D 0.05 ± 0.089, A -0.139 ± 0.093, M -0.794 ± 0.21, P 0.242 ± 0.14, V -0.837 ± 0.13, Q -0.226 ± 0.13, I -1.09 ± 0.36, L -0.577 ± 0.1, E 0.161 ± 0.12, F -0.54 ± 0.16, N -0.561 ± 0.13, Y -0.488 ± 0.11, K -0.781 ± 0.12
Y45: V -1.01 ± 0.32, Q -0.566 ± 0.16, M -0.872 ± 0.18, T -0.41 ± 0.42, R -0.174 ± 0.19, P -0.726 ± 0.28, G -0.98 ± 0.33, S -0.561 ± 0.35, W -0.546 ± 0.39, E -0.77 ± 0.21
W49: Q 0.349 ± 0.11, K 0.497 ± 0.09, E 0.075 ± 0.27, A -0.088 ± 0.12, R 0.514 ± 0.083, I -0.04 ± 0.18, P -0.599 ± 0.12, N 0.404 ± 0.15, T 0.248 ± 0.073, M 0.353 ± 0.12, V -0.204 ± 0.083, L 0.112 ± 0.061, C 0.061 ± 0.11, H 0.122 ± 0.12, D -0.532 ± 0.36, Y 0.077 ± 0.091
